Assay results published in patent US20240424120A1.
Starred links: 1 amine or outer side, 2 acyl side, 3 side chain; linkers in the order of their positions; H or OH if unused. Positions of bridges follow the written chain, without caps; N, C: chain ends. Non-standard residues stand in square brackets, D forms with d. No end group written: not given here. TATA = O=C(CC[*:1])N1CN(C(=O)CC[*:2])CN(C(=O)CC[*:3])C1; 1Nal = N[C@@H](Cc1cccc2ccccc12)C(=O)O; Hyp = O=C(O)[C@@H]1C[C@@H](O)CN1; hArg = N=C(N)NCCCC[C@H](N)C(=O)O; Pen = CC(C)(S)[C@H](N)C(=O)O; hCys = N[C@@H](CCS)C(=O)O; βAla = NCCC(=O)O; Sar = CNCC(=O)O

How the values were obtained:
Human Nectin-4 (human) [1] = target: Human Nectin-4 (human) (UniProt Q96NY8); assay: SPR (Biacore 8K), Nectin-4 amine-coupled on CM5 chip, compound as analyte, multi-cycle kinetics, 1:1 model
Chain of Human Nectin-4 (human) (Q96NY8 32-349 limits assumed): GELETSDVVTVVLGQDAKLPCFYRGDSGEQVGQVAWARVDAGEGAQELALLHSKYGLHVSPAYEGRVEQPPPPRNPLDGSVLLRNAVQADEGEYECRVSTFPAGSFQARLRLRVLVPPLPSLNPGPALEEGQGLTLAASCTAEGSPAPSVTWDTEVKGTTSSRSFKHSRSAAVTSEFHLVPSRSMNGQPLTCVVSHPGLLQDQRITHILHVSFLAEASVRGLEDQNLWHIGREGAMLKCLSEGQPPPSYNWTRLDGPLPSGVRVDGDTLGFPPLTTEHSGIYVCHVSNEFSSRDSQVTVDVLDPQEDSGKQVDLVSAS

Human Nectin-4 (human) [2] = target: Human Nectin-4 (human) (UniProt Q96NY8); assay: SPR (Biacore 8K), Nectin-4 amine-coupled on CM5 chip, compound as analyte, multi-cycle kinetics, 1:1 model; average of two tests

Kd (Human Nectin-4 (human) [1]) [nM]	Kd (Human Nectin-4 (human) [2]) [nM]	Binder
4.13		[βAla][Sar][Sar][Sar][Sar][Sar][Sar][Sar][Sar][Sar][Sar]K[Sar]DCP[1Nal][dD][Pen]M[hArg]DWSTP[Hyp]W[hCys] (not fully specified (C-terminus); cysteine pairing not given here; also: further groups not given here, drug-linker INT_1 coupled, site not given here, acetate salt) [Acetate salt of PDC_3]
	0.43	[βAla][Sar][Sar][Sar][Sar][Sar][Sar][Sar][Sar][Sar][Sar]K[Sar]DCP[1Nal][dD][Pen]M[hArg]DWSTP[Hyp]WC-NH2 (lactam 12-14; linker 15-19-29 via TATA; also: drug-linker INT_1 coupled, site not given here, acetate salt) [Acetate salt of PDC_2]
1.4		[βAla][Sar][Sar][Sar][Sar][Sar][Sar][Sar][Sar][Sar][Sar]K[hArg]DCP[1Nal][dD][Pen]M[hArg]DWSTP[Hyp]WC-NH2 (lactam 12-14; linker 15-19-29 via TATA; also: drug-linker INT_1 coupled, site not given here, acetate salt) [Acetate salt of PDC_1]
